These results are taken from article PMC3724861.

In the data set the target is T1, Caup homeodomain (Drosophila melanogaster) (UniProt P54269).
T1 sequence: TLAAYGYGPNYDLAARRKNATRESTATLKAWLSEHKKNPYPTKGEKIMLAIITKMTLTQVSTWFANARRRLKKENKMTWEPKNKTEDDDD
The note with it: PBM.
Consider “ATGTACATG (double strand) [9-mer ATGTACATG]”, for which the binding signal (minimum E-score of the two 8-mers) worked out at 0.469.
Sequence “ACATGTACA (double strand) [9-mer ACATGTACA]” showed a binding signal (minimum E-score of the two 8-mers) of 0.469.
The value for “GTACATGTA (double strand) [9-mer GTACATGTA]” was 0.48; that for “TACATGTAA (double strand) [9-mer TACATGTAA]” was 0.468; that for “AACATGTAG (double strand) [9-mer AACATGTAG]” was 0.476.
The same measure for “TACATGTCA (double strand) [9-mer TACATGTCA]”: 0.461.
The value for “CTACATGTC (double strand) [9-mer CTACATGTC]” was 0.476.
Sequence “GACATGTAA (double strand) [9-mer GACATGTAA]” yielded a binding signal (minimum E-score of the two 8-mers) of 0.468.
The value for “CTACATGTA (double strand) [9-mer CTACATGTA]” was 0.476; that for “AACATGTAT (double strand) [9-mer AACATGTAT]” was 0.469; that for “AACATGTAA (double strand) [9-mer AACATGTAA]” was 0.468.
“AACATGTAC (double strand) [9-mer AACATGTAC]” registered a binding signal (minimum E-score of the two 8-mers) of 0.48.
The same measure for “GACATGTAC (double strand) [9-mer GACATGTAC]”: 0.477.
The value for “ATACATGTA (double strand) [9-mer ATACATGTA]” was 0.469.
The value for “ATACATGTC (double strand) [9-mer ATACATGTC]” was 0.469.
